{"source": "IntAct's records for PubMed 23001144", "target": "tir_eco27 tir (UniProt B7UM99)", "sequence (B7UM99 whole entry)": "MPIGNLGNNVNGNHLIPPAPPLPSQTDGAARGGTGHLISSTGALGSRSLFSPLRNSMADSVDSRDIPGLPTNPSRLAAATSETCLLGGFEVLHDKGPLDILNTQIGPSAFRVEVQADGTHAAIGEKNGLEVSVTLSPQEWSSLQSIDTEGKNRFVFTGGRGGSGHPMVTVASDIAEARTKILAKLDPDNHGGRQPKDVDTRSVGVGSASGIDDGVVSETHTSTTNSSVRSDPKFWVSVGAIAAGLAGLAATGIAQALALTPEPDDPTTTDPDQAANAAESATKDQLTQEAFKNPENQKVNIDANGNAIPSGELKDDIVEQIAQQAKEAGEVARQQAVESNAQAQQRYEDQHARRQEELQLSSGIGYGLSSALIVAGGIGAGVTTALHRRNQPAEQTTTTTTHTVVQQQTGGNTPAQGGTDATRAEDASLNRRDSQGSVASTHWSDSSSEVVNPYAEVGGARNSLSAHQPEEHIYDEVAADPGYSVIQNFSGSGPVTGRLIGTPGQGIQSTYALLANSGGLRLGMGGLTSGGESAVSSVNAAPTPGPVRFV"}
{"substance": "Tyrosine-protein phosphatase non-receptor type 6 (Homo sapiens), P29350 C453S", "values": [{"measurement": "effect of a mutation on the interaction", "value": "decreasing interaction"}]}
